This passage reports Km results from paper PMC9040794, “The Plant Defense Signal Salicylic Acid Activates the RpfB-Dependent Quorum Sensing Signal Turnover via Altering the Culture and Cytoplasmic pH in the Phytopathogen Xanthomonas campestris” (mBio, 2022).

The test system of this data set is CC(C)CCCCCCC/C=C\C(=O)O. Put plainly: purified protein. The following applies: pH 7.0 phosphate (standard of pH 6, 7, 8 tested); co-substrates 5 mM ATP, 0.5 mM CoA; 10 mM MgCl2, 2 mM EDTA, 0.1% Triton X-100; 37°C in b48 (28°C elsewhere in the source).

On to “RpfB (Xanthomonas campestris pv. campestris str. ATCC 33913)”, for which the Km is 6.5 µM.

Usually Km stands for the concentration of substrate that gives half-maximal velocity.
